Measured values reported in publication PMC11828899, “Structural insights into human brachyury DNA recognition and discovery of progressible binders for cancer therapy”.

Key:
[1] = molecular target: T1, Brachyury full-length WT (Homo sapiens, UniProt O15178 1-435); test: EMSA; apparent; Hill slope 2.3; DNA 1-5 nM; EMSA: 25 mM HEPES pH 7.4, 75 mM NaCl, 10% glycerol, 0.1% Tween 20, 1 mM TCEP, on ice 10 min; SPR: 10 mM HEPES pH 7.5, 150 mM NaCl, 1 mM DTT, 1% DMSO, temperature not stated; settings: protein: recombinant; tags: C-terminal AVI tag, biotinylated; N-terminal 9His-GST removed with TEV (construct stated for SPR/DSF); chain copies: 2; label: 32P 5' end (EMSA); none stated (SPR); blunt
T1 sequence: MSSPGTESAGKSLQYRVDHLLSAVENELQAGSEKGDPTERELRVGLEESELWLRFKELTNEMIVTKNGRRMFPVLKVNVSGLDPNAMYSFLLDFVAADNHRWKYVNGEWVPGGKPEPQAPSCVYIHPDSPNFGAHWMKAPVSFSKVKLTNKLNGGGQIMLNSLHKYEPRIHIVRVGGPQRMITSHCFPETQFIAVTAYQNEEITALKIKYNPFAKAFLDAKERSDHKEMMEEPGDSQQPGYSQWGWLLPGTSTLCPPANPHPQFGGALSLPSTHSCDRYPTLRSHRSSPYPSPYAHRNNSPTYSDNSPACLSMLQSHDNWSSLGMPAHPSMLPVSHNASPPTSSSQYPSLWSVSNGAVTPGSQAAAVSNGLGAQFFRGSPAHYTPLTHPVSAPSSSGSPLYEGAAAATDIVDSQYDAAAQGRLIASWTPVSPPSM

[2] = molecular target: T2, Brachyury full-length G177D (Homo sapiens, UniProt O15178 1-435, G177D); test: EMSA; apparent; Hill slope 1.8; DNA 1-5 nM; EMSA: 25 mM HEPES pH 7.4, 75 mM NaCl, 10% glycerol, 0.1% Tween 20, 1 mM TCEP, on ice 10 min; SPR: 10 mM HEPES pH 7.5, 150 mM NaCl, 1 mM DTT, 1% DMSO, temperature not stated; settings: protein: recombinant; tags: C-terminal AVI tag, biotinylated; N-terminal 9His-GST removed with TEV (construct stated for SPR/DSF); chain copies: 2; label: 32P 5' end (EMSA); none stated (SPR); blunt
T2 sequence: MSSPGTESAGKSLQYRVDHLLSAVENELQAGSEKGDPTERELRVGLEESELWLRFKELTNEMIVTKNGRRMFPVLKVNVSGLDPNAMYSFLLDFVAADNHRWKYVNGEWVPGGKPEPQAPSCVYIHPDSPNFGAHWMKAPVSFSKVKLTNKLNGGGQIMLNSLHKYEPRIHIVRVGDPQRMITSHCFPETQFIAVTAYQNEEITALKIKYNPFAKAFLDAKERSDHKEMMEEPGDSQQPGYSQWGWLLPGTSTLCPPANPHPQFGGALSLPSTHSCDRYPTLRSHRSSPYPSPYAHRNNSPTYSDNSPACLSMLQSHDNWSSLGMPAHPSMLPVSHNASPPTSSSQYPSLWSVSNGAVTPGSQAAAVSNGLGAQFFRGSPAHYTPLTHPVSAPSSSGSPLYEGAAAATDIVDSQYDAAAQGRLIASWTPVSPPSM

[3] = molecular target: T2, Brachyury full-length G177D; test: SPR; protein immobilized; steady-state fit; EMSA: 25 mM HEPES pH 7.4, 75 mM NaCl, 10% glycerol, 0.1% Tween 20, 1 mM TCEP, on ice 10 min; SPR: 10 mM HEPES pH 7.5, 150 mM NaCl, 1 mM DTT, 1% DMSO, temperature not stated; settings: protein: recombinant; tags: C-terminal AVI tag, biotinylated; N-terminal 9His-GST removed with TEV (construct stated for SPR/DSF); chain copies: 2; label: 32P 5' end (EMSA); none stated (SPR); blunt
[4] = molecular target: T1, Brachyury full-length WT; test: as above; settings: protein: recombinant; tags: C-terminal AVI tag, biotinylated; N-terminal 9His-GST removed with TEV (construct stated for SPR/DSF); chain copies: 2; label: 32P 5' end (EMSA); none stated (SPR); blunt
[5] = molecular target: T3, Brachyury DNA binding domain G177D (Homo sapiens, UniProt O15178 41-224, G177D); test: X-ray crystallography; 2.15 A; two protomers per duplex; EMSA: 25 mM HEPES pH 7.4, 75 mM NaCl, 10% glycerol, 0.1% Tween 20, 1 mM TCEP, on ice 10 min; SPR: 10 mM HEPES pH 7.5, 150 mM NaCl, 1 mM DTT, 1% DMSO, temperature not stated; settings: protein: recombinant; chain copies: 2; blunt, self-complementary, 2 copies of strand
T3 sequence: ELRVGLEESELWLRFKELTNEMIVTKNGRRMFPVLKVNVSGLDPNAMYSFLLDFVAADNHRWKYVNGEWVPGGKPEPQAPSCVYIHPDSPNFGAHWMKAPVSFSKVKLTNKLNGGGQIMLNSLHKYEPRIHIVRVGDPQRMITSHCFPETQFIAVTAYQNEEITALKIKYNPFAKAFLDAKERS

[6] = molecular target: T4, Brachyury DNA binding domain WT (Homo sapiens, UniProt O15178 41-224); test: X-ray crystallography; 2.25 A; two protomers per duplex; EMSA: 25 mM HEPES pH 7.4, 75 mM NaCl, 10% glycerol, 0.1% Tween 20, 1 mM TCEP, on ice 10 min; SPR: 10 mM HEPES pH 7.5, 150 mM NaCl, 1 mM DTT, 1% DMSO, temperature not stated; settings: protein: recombinant; chain copies: 2; blunt, self-complementary, 2 copies of strand
T4 sequence: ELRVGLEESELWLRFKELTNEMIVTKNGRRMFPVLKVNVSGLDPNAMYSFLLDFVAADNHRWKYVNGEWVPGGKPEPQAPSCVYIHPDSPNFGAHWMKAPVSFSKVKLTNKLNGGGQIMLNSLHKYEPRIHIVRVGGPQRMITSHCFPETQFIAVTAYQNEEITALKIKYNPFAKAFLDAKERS

B1: TA50 palindromic 50 bp (TA50-F/TA50-R) (dsDNA)
DNA 1: CATGCATGCAGGGAATTTCACACCTAGGTGTGAAATTCCCATTCGTGCGA
DNA 2: TCGCACGAATGGGAATTTCACACCTAGGTGTGAAATTCCCTGCATGCATG
Kd [1]: 1.4 nM | Kd [2]: 1.2 nM | Kd [3]: 17.9 nM | Kd [4]: 14.8 ± 2.4 nM

B2: 26 bp palindromic T-box DNA (dsDNA)
DNA 1: GAATTTCACACCTAGGTGTGAAATTC
DNA 2: GAATTTCACACCTAGGTGTGAAATTC
binding result [5]: binds

B3: 24 bp palindromic T-box DNA (dsDNA)
DNA 1: AATTTCACACCTAGGTGTGAAATT
DNA 2: AATTTCACACCTAGGTGTGAAATT
binding result [6]: binds
